# Experimental data as given in PMC7145715.
# B1: WT-4BRBS (AR-A2) (ssRNA)
# RNA: CUCAUCUCCAGUCUGAGUAAUAAUGCUUAUAGUAUUAUGG
# Target: KDM4B (1-350) (UniProt O94953 1-350)
# Test: EMSA
# Chain of KDM4B (1-350) (O94953 1-350): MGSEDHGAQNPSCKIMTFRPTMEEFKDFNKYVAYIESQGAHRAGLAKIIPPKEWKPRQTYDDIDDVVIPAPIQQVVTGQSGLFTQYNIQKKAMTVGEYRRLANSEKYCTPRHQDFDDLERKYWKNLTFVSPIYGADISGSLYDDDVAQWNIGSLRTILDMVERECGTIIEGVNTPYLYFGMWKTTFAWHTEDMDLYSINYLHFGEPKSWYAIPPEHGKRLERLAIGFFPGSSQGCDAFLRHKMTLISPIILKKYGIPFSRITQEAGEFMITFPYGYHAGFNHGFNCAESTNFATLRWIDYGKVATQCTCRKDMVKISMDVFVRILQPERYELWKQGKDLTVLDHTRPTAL
binder,measurement,value
B1,binding result,binds
